According to the DeepSol protein solubility set:

assay: soluble on expression in E. coli; label from the status in PepcDB or PDB records

Sequence	soluble on expression in E. coli
MGDWIIKLEDVSAGYGKLQTLFDVSLEIPRGLITVIVGPNGAGKSTLLKTMFGFTTVYKGRVLFENTDVTHMPPHDRAKIGMTFIFQLENIFRELTVYENLRLAGYDLPEDVFRDRLEEVFSMFPRLKERLGQKAGTLSGGERQMLAMAIGIMRKPKVFLIDEPTAGLSPKLAKEVLSYVRILNKEGYTVVLVEQNVKASLEIGDKGVLVVNGRIAFDGPAEELLARKDLAKMYLGV	soluble
MGDWMIENKVRDVVKKLKPYVPGKSKEEIARAYGIKPEDIIKLGSNENPWGPSPKIKEKILDEIDKIHQYPEPVNPILMKELSKFLNVDEENIIVGGDGADEIIDTIFRTFVDDGDEVIIPIPTFTQYRVSATIHNAKIKYAKYDKEKDFKLNVESVLNNITDKTKVIFLCTPNNPTGNIIENRDVERVINETDALVVIDHAYIEYAKKEYDWTQKAPEYDNVIVLRTFSKVFGLAGMRVGYGVANKKIIDYMMRVKPIFSLTRLSQVCAITALRDREFFERCVRDGIKSREMLYNGLKKFKDIKVYPSEANYLLVELKTMKAKEFCEELLKRGVIVRDCTSFDGLGDNYVRVSIGTFEEVERFLKILEEIIS	not soluble
MGEAPAVLVDHPENGHSNGVCVKSEPENTEITVDVGDRIFLIGGTHERNNFSIGVQIYDKISNNWFSPIVLGTGPKPSKGYSAFVLEQGRILVIKKGSPRNDSIWFLEVDSPYVREQKKLLRKEVVAWSKGVRGNAEKPIVISGPSGVGKGTLISMLMKEFPSMFGFSVSHTTRSPRSMEMDGVHYHFADKKVMEKEIKDGKFLEFASVHGNLYGTSIESVEAVTDSGKRCILDIDVQGARSVRASSLDAIFIFVCPPSMKELEDRLRARGTETEEQIQKRLRNAEAEIKEGISSGIFGLILYNDNLEECYKKLKNLLGLDGLAHVNGVEIEGINLPIEYAVSKMEDKIIIQETGKETRNKIVVDISSLNGGAPGRTRGILVDAIKF	soluble
MGEENQPNYTISQENWSLHRKGYDDQQRHQEKVQEAIKNNLPDLVTEESIVMSNGKDVVKIPIRSLDEYKIRYNYDKNKHVGQGNGDSKVGDVVARDGSGGQKQKGPGKGQGAGDAAGEDYYEAEVSILELEQAFFRELELPNLKRKEMDENRIEHVEFNDIRKTGLWGNIDKKRTMISAYKRNAMGGKASFHPIHQEDLKFRTWNEVLKPDSKAVVLAMMDTSGSMGIWEKYMARSFFFWMTRFLRTKYETVDIEFIAHHTEAKVVTEEEFFSKGESGGTICSSVYKKALELIDNKYSPDRYNIYPFHFSDGDNLTSDNARCVKLVEELMKKCNMFGYGEVNQYNRHSTLMSAYKNIKDENFRYYILKQKADVFHAMKSFFREESGEKMALEHHHHHH	soluble
MGEIIKESDKRVALKLPANVTEIDDRAFLGCTRLESIDLSACTSLTAIKLAAFKGCTSLKAVQLPQSLTTIGHFAFEGCTALKEVELPQNLTVIGTDAFKGCSIETLVIHCDIKGTIIENFTKKDEVNKNVKKLTLGKGVTTIGNYAFYIIGYSKLAAVDFSACTALTEIGENAFAYSKLTNVNLSACIKLTEIGKSAFSNCTDLTNVDLSGCTALTTIGEQAFNSCYEATVKLPTGITAIGNEAFGENDEDFLCKNVLIPRSHAATIKPLVTASDYPEDRIREY	not soluble
MGELWGNGGGCYSPVPPVMIPFMAYYEKRGDAWRAQIRRKGYPTLSATFDTKAEAQRWAAELEGDMSRARFVDVREAEATSLATALERYESEVTESKKGAKQERVRIKKWMESKFAGKSLASLRSSDMASYRDAEIKAGRSTATVRLDLAVISHLYTVATKDWGIEGLTNPCRALRMPKGSKQRERRPTADELKSLYKAAGEISPELPVIIELAVETAMRRSELVTLRKDQIQGKVAFLEDTKNGERRSVPLSSRARELIEGVPAPIKGGPLFRLKADTVSNYFPLACEKANIQGLRLHDLRHEATSRLFERGFTMMEVASITGHKTLAMLKRYTHLSPQDLAEKLG	not soluble
MGFADFFKNFKINKLRTAPSKEEQPSHWVKCPKCYALMYHKEVFSKYSVCLKCHYHFRMKAAERIEFLCDVGSFEEFDKHLRPNDPLNFVDKESYKQRIKKYEKRTNRPSSVISGEAKINRMPLQIVVFDFSFMGGSLGSVEGEKIVRAINRAVAKREALLIVSASGGARMQESTYSLMQMAKTSAALNRLSEAKLPFISLLSDPTYGGVSASFAFLGDLIIAEPGAMIGFAGPRVIKQTIGADLPEGFQTAEFLLEHGLIDMIVHRKDLKKTLSDLIAMMTHKTSKIFLEHHHHHH	soluble
MGFSKKSQFEGGLESDGKKWVIAGISIRASLKPVKTKLRAPPEIVTEVEEDCYNEEEECSTTPTAKETKIPELLECPPAPRKRRPALKCRSNVVREFFTPPSDLETVFLRRR	not soluble
MGGASSPRIPSRRSAPYFTSLAFFGSSYIKVKNNRNKMLNPTDAASVALSFSVPFQMSGENPLSKLVEHCNKFVPGADIKMKAEPAKPESLLLPTDMNAYSPYLATPNWWVDQTGWPQLYPTVTTASSVDVYQNYLASSQLGGLLSSSVSAVASQLPAGINAQSALNITSQQRTIAKSFQHTKPMASSSSIPSVLTASNSSANSLVSSGSESVSARGTSGSGGTGKYPSSRTANKCECPNCHEIEKFGPNAIAARKRGVHNCHIAGCGKVYNKSSHLKAHLRWHSGERQMKKRSGDSS	not soluble
MGGCCSQEGCNTRPRYLPLKCYPGLPMRATRRLDLSAVERALREVQGRFAELSQHFTEPRDPFTDEVLLNVVEGYALIDDYVARGIDLFDLQQLNLMLEINATVLCGSDPARRLEFAPHLAATEAHFFNNVEGGIKDLYNWYCAYRSDSIWKRAAGVYVRILSKPQLFIEGNNRTGSLIVSYLLMRAGLPPFVLSLDNAEGYFNPSSVIRNSAKHGVKALYELPKIKKKYAAFLEAKAPEPGKFFLNGTPVPACEGSRLEHHHHHH	soluble
MGGFLVLNSSNNVVRTVPSKKRKHPEYKSKGSQIRELISGIRSDNLREAVRLPQGVDINEWFAMNNFFNQISLLYATLEEFCTQTTCPVMNAGRYEYRWADGTTITKPKTVSAPKYVEYLIDWVETEIDNEAIFPKNPGEPFPPNFEDFVKRILRKLFRVYAHIYYSHFHEIVALNEQAHLNTCFKHFLLFVSEFQLVDKEKEMAPIKSLVETMLDQ	soluble
MGGGGGGMEQFNAFKSLLKKHYEKTIGFHDKYIKDINRFVFKNNVLLILLENEFARNSLNDNSEIIHLAESLYEGIKSVNFVNEQDFFFNLAKLEENSRDTLYQNSG	soluble
MGGGHHEPFKIPNYSIYSNFRDFPQLAQHEKRLAQIGLKDPWIRNYVYLYDRKYPHVVGQWAHFKKLILPGWKAGVAFTAALIFVEEAYQYKTHGTTSWDGHH	not soluble
MGGSHHHHHHGMASALKEKKSQETEVTSTLEQQKICLVLESCLKKNSDEEGSQEKGGDDSQQKFIAHVPVPSQQEIEEALVRRKKMELLQKYASETLQAQSEEARRLLGY	not soluble
MGGVFSSASSNQAQITGILQELERTRLEREIALAHLQERRRIAFKIAEEREKFNWIACGGSLVVVLSALSSFHHKNLLHVIPIFPMASFIGYKAHFCYGDQLKKISETSTQLLEESVDALVPLPPTIADVRSRSKQIKEEESSNY	not soluble
MGHHHHHHAKAVAPTTGWKQENGMWYFYNTDGSMATGWVQVNGSWYYLNSNGSMKVNQWFQVGGKWYYVNTSGELAVNTSIDGYRVNDNGEWVR	soluble
MGHHHHHHGGHMSLMASISSLGVGSGLDLSSILDSLTAAQKATLTPISNQQSSFTAKLSAYGTLKSALTTFQTANTALSKADLFSATSTTSSTTAFSATTAGNAIAGKYTISVTHLAQAQTLTTRTTRDDTKTAIATSDSKLTIQQGGDKDPITIDISAANSSLSGIRDAINNAKAGVSASIINVGNGEYRLSVTSNDTGLDNAMTLSVSGDDALQSFMGYDASASSNGMEVSVAAQNAQLTVNNVAIENSSNTISDALENITLNLNDVTTGNQTLTITQDTSKAQTAIKDWVNAYNSLIDTFSSLTKYTAVDAGADSQSSSNGALLGDSTLRTIQTQLKSMLSNTVSSSSYKTLAQIGITTDPSDGKLELDADKLTAALKKDASGVGALIVGDGKKTGITTTIGSNLTSWLSTTGIIKAATDGVSKTLNKLTKDYNAASDRIDAQVARYKEQFTQLDVLMTSLNSTSSYLTQQFENNSNSKEGGS	soluble
MGHHHHHHGSDSEVNQEAKPEVKPEVKPETHINLKVSDGSSEIFFKIKKTTPLRRLMEAFAKRQGKEMDSLRFLYDGIRIQADQAPEDLDMEDNDIIEAHREQIGGDSEVNQEAKPEVKPEVKPETHINLKVSDGSSEIFFKIKKTTPLRRLMEAFAKRQGKEMDSLRFLYDGIRIQADQAPEDLDMEDNDIIEAHREQIGGMFMAKITGSVVSTKKEDSLTGKKLMIVQPIDANGEHVRSEEVACDSVGAGIGEYVLVARGNAARSVFAEPNSAIDSAIIAIVDSFDK	soluble
MGHHHHHHSHDVPEMPSIPNPFPELCCSPFTSVLSADLFPKANSRKKQVIKVYSEDETSRALDVPSDITARDVCQLLILKNHYIDDHSWTLFEHLPHIGVERTIEDHELVIEVLSNWGIEEENKLYFRKNYAKYEFFKNP	not soluble
MGHHHHHHSHEMLPEIGEEKVAIIAPSPSDHPQFKEILQHYVEQGKEVSPSSVRADTLDEELADLLKKAGVKTLTIAPETASDKLQEVINKGIGDEEVMRAAELASTRFEKVKLYYMVGLPGESFEDVKAILEQALRVKKLVGKVEISVNPLVPKPHTPLQWMGFGGEEELREGISHLKKKLEYLRREARRAGIGADVSGFKEFAIQTILSRGDREVAEML	soluble
MGHHHHHHSHGLNSSRNLLIISQKSDQILNYITNGADRGATKIPVLGGHTGHSQNMIMTTLSTHEVPKVQEEIQKIDETAFIVIIPASTVMGRGFSLQKDYKSVPNDFINP	soluble
MGHHHHHHSHGQSLIVLQNVGGGEAGPQEMSGVQLQPLRPAPEVTTVQLQPAQEVTTVQLQPAQEVTTVQLQPAQEVTTVQLQPVAGQLSNSSGGAVATEAPNLLVVQSGAAEELLTGPGPGEAGDGEASTGVVQDVLFETLQTDEGLQSVLVLSGADGEQTRLCVQEVETLPPGLTEPPATGPPGQKLLIIRSAPATELLDSSNTWRRHRPRCNFLAPPAV	not soluble
MGHHHHHHSHKGLIDEITKKNIQLKKEIQKLETELQEATKEFQIKEDIPETKMKFLSVETPENDSQLSNISCSFQVSSKVPYEIQKGQALITFEKEEVAQNVVSMSKHHVQIKDVNLEVTAKPVPLNSGVRFQVYVEVSKMKINVTEIPDTLREDQMRDKLELSFSKFRNGGGEVDRVDYDRQSGSAVITFVEIGVADKILKKKEYPLYINQTCHRVTVSPYTEIHLKKYQIFSGTSKRTVLLTGMEGIQMDEEIVEDLINIHFQRAKNGGGEVDVVKCSLGQPHIAYFEE	not soluble
MGHHHHHHSHKRVVLKLSGEALAGEKGFGINPVIIKSVAEQVAEVAKMDCEIAVIVGGGNIWRGKTGSDLGMDRGTADYMGMLATVMNALALQDSLEQLDCDTRVLTSIEMKQVAEPYIRRRAIRHLEKKRVVIFAAGIGNPYFSTDTTAALRAAEVEADVILMGKNNVDGVYSADPKVNKDAVKYEHLTHIQMLQEGLQVMDSTASSFCMDNNIPLTVFS	not soluble
